The target of assay [1] is T1, human SPNS2 (human, UniProt Q8IVW8 1-549).
T1 sequence: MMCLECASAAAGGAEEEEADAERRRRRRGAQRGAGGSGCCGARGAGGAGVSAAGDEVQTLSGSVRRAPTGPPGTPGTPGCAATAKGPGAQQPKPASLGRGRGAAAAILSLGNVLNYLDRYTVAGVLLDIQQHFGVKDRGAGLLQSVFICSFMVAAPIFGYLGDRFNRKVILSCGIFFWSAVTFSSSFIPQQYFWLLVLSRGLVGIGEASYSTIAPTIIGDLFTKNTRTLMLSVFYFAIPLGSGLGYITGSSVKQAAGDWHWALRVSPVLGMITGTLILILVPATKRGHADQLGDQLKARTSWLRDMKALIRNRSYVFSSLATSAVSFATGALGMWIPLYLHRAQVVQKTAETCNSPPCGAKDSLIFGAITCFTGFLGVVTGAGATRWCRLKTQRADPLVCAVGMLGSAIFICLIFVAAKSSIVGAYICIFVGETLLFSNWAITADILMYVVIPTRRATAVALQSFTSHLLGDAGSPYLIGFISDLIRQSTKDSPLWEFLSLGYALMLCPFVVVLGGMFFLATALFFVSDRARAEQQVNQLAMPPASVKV
Put plainly: cell-based or functional assay.

The target in assay [2] is T2, Mutant 1 of human SPNS2 (FLAG tag inserted in extracellular loop 1) (human, UniProt Q8IVW8 1-549).
T2 construct: on HEK293 cells; also called extracellular loop 1 mutant
T2 sequence: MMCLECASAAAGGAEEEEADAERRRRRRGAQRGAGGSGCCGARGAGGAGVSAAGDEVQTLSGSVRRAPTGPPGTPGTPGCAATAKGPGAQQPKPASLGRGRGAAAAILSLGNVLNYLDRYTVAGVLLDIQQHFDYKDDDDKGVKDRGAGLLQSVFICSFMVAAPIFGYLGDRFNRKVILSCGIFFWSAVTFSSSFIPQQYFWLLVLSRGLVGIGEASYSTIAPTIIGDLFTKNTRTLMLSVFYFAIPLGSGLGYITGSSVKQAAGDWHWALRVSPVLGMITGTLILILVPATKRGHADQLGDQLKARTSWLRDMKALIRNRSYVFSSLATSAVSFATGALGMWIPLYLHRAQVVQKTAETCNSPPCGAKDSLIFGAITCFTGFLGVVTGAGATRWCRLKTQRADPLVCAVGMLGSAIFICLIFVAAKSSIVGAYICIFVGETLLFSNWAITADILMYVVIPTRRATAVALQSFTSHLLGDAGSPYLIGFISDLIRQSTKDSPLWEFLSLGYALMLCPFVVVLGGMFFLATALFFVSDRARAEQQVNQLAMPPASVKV
Put plainly: flow cytometry, FLAG-insertion mutant. The method in brief:
(§1)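 HEK 293 cells were lipofected with the mutant and cultured overnight, then stained 30 min at room temperature with anti-FLAG and anti-SPNS2 antibodies, each at 20 μg/mL. Detection used anti-mouse IgG-Alexa 647 and anti-rat IgG-FITC. Binding is the ratio of FITC-positive to Alexa 647-positive cell rate, scored (+) <0.1, (±) 0.1–<0.5, (−) ≥0.5.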
In general terms: In flow cytometry, cells or beads pass a laser one at a time.

Assay [3] deals with T3, Mutant 3 of human SPNS2 (FLAG tag inserted in extracellular loop 7) (human, UniProt Q8IVW8 1-549).
T3 construct: on HEK293 cells; also called extracellular loop 7 mutant
T3 sequence: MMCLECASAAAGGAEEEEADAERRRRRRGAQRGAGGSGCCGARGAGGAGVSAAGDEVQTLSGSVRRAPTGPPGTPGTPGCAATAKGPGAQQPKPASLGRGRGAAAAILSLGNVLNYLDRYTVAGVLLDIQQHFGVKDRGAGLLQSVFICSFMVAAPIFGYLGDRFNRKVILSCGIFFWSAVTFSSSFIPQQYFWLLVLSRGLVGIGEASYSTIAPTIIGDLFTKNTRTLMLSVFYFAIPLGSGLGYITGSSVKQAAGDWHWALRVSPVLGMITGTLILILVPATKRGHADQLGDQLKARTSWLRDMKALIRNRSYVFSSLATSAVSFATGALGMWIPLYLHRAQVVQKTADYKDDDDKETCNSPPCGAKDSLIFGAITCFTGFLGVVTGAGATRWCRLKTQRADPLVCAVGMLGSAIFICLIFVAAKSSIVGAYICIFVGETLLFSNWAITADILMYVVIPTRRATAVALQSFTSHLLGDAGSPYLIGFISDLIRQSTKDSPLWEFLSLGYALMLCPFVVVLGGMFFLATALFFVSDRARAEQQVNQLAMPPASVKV
Put plainly: flow cytometry, FLAG-insertion mutant. Summed up: as §1

The target of assay [4] is T4, Mutant 2 of human SPNS2 (FLAG tag inserted in extracellular loop 5) (human, UniProt Q8IVW8 1-549).
T4 construct: on HEK293 cells; also called extracellular loop 5 mutant
T4 sequence: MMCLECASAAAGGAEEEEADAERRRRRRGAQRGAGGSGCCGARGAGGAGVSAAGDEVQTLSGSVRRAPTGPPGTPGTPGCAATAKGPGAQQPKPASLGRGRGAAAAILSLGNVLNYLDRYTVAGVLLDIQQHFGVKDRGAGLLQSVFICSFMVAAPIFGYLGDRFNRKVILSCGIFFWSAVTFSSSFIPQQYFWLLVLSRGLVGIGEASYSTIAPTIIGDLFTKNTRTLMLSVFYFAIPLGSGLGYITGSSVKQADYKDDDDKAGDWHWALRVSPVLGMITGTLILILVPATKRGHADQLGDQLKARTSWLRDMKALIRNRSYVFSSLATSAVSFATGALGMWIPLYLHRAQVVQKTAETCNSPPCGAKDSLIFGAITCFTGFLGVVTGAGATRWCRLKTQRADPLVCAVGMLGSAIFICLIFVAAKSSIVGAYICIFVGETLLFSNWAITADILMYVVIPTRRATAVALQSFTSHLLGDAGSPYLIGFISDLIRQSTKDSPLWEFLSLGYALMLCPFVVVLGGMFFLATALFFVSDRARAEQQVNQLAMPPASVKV
The assay is described as follows: flow cytometry, FLAG-insertion mutant. Summed up: as §1

Where only a bound is given, the exact number is not on record here.

B1: 96-1403F (antibody, IgG2b, V domains shown)
VH: EVQLVETGGGLVRPGSSLKLSCATSGFTFSDTWMSWVRQAPGKGLEWVALIKDKNSNSEANYAESIKGRFTISRDDSKSRVYLQMNTLRDQDTATYYCTRHEDFYYYSGYYFDYWGQGVMVTVSS
VL: DIVLTQSPPTLSVTPGESVSLSCRASQGISTSIHWYQQRSNESPRLLIKYASQSIAGIPSRFSGSGSGTDFILSINRVESEDFSVYYCQQTYSLPLTFGPGTKLEVKR
With B1, the “pIC50, S1P transport inhibition (LC-MS/MS of S1P)” value (“pIC50, S1P transport inhibition” for short) in assay [1] is 7 pIC50 (M). Moreover, the “FITC+/Alexa 647+ cell rate ratio” value was less than 0.1 ratio in assay [2] and no less than 0.5 ratio in assay [3].

B2: 65-0810G (antibody, IgG2b, V domains shown)
VH: EVHLVESGGGLVQPGRSMKLSCTASGFTFNNYYMAWVRQAPTKGLEWVASISTGGGYTYYRDSVKGRFTISRDNTGNTLYLQMDSLRSEDTATYYCARCWELPYWGQGVMVTVSS
VL: QFVLTQPNSVSTNLGSTVKLSCRRSSGNIGNNYVNWYRQHEGRSPTTMIYRDDTRPDGVPNRFSGSIDRSSNSALLTINNVRPEDEAYYFCQSYSGSIYIFGGGTKLTVL
With B2, the “pIC50, S1P transport inhibition” value in assay [1] is 7.4 pIC50 (M). In addition, the “FITC+/Alexa 647+ cell rate ratio” value in assay [2] is less than 0.1 ratio; in assay [4], less than 0.1 ratio; in assay [3], no less than 0.5 ratio.

B3: 50-0704C (antibody, IgG2b, V domains shown)
VH: EVQLVGSGGGLVQPGRSMKLSCEASGFTFSNHYMAWVRQAPTKGLEWVATISTGGGNTYYRDSVKGRFTISRDNARSTLSLQMDSLRSEDTATYYCARQDYSNYMGGFAYWGQGTLVTVSS
VL: QFVLTQPNSVSTNLGSTVKLSCTRSIGNIGNNYVNWYKQYEGRSPTTMIYRDDERPDGVPDRFSGSIDRSSNSALLTINSVQTEDEADYFCQSFSSGIFIFGGGTKLTVL
As to B3, the “pIC50, S1P transport inhibition” value in assay [1] was 7.6 pIC50 (M). Further, the results for the “FITC+/Alexa 647+ cell rate ratio” value in assay [2], in assay [4] and in assay [3] were less than 0.1 ratio, less than 0.1 ratio and no less than 0.5 ratio, respectively.

B4: 18-0211B (antibody, IgG2b, V domains shown)
VH: AVQLVGSGGGLVQPGRSMKLSCEASGFTFSNHYMAWVRQAPTRGLEWVATISTGGGNTYYRDSVKGRFTISRDNTRSTLSLQMDSLRSEDTATYYCTRQDYTNYMGGFAYWGQGTLVTVSS
VL: QFVLTQPNSVSTNLGSTVKLSCTRSIGNIGNNYVNWYKQYEGRSPTTLIYRDDERPDGVPDRFSGSIDRSSNSALLTINSVQTEDGADYFCQSFSSGIFIFGGGTTLTVL
As for B4, the “pIC50, S1P transport inhibition” value in assay [1] is 7.9 pIC50 (M). For the same molecule, the “FITC+/Alexa 647+ cell rate ratio” value in assay [2] is less than 0.1 ratio; in assay [4] it was less than 0.1 ratio; in assay [3], no less than 0.5 ratio.

B5: 89-1207D (antibody, IgG2b, V domains shown)
VH: EVQLVGSGGGLVQPGRSMKLSCEASGFTFSNHYMAWVRQAPTKGLEWVATISTGGGNTYYRDSVKGRFTISRDNARSILSLQMDSLRSEDTATYYCARQDYSNYMGGFAYWGQGTLVTVSS
VL: QFVLTQPNSVSTNLGSTVKLSCTRSIGNIGNNYVNWYKQYEGRSPTTMIYRDDERPDGVPDRFSGSIDRSSNSALLTINNVQTEDEADYFCQSFSSGMFIFGGGTKLTVL
B5: in assay [1], the “pIC50, S1P transport inhibition” value was 7.6 pIC50 (M). The “FITC+/Alexa 647+ cell rate ratio” value in assay [2] is less than 0.1 ratio; in assay [4], less than 0.1 ratio; in assay [3], no less than 0.5 ratio.

B6: 37-0511F (antibody, IgG2b, V domains shown)
VH: EVHLQQSGAALVRPRASVKLSCKVSGDSISRYYVHFVKQRPGQGLEWIGRIDPEDDTTKYSEKFKNRATLTADASSDTASLILSGLTSDDTATYFCSTLTGLDYWGQGVMVTVSS
VL: DIQMTQSPPVLSTSVGDRVTLRCKPSQNVHSKLDWYQQKHGEAPKLLIYYTHNLQTGIPSRFSGSGSGTDYTLTISSLQPEDVATYYCFQYYSGWTFGGGTKLEMKR
On to B6, for which the “pIC50, S1P transport inhibition” value in assay [1] was 7.7 pIC50 (M). Also, the “FITC+/Alexa 647+ cell rate ratio” value in assay [2] and in assay [4] was less than 0.1 ratio in each case.

B7: 53-0707E (antibody, IgG2b, V domains shown)
VH: EVQLQQSGAELVRPRTSVKLSCKVSGDSITRYYVHFVKQRPGQGLEWIGRIDPEDDTTKYSEKFKKKATLTADASSNTAYLIFSGLTSEDTATYFCSTLTGLDYWGQGVMVTVSS
VL: DIQMTQSPPVLSTSVGDRVTLRCKASQNVHSKLDWYQQKHGEAPKLLIYYTHNLQTGIPSRFSGSGSGTDYTLTISSLQPEDVATYYCFQYYSGWTFGGGTKLEMKR
With B7, the “pIC50, S1P transport inhibition” value in assay [1] was 7.3 pIC50 (M). For the same molecule, the “FITC+/Alexa 647+ cell rate ratio” value in assay [2] and in assay [4] was less than 0.1 ratio each time.

B8: 64-0807A (antibody, IgG2b, V domains shown)
VH: EVQVVESGGGLVQPGRSMKLSCAALGFTFRDYYMAWVRQTPTKGLEWVAAISTGGGNTYYRDSVKGRFTISRDNAKSTLYLQMDSLRSDDTATYYCARNPYGNYFDYWGQGVMVTVSS
VL: QFVLSQPNSVSTNLGSTVKLSCKRSTGNIGSNYVHWYQRHEGRSPTTLIYRDDKRPNGVPDRFSGSIDRSSNSALLTINNVQTEDEADYFCQSYSGGMYLFGGGTKLTVL
In the case of B8, the “pIC50, S1P transport inhibition” value in assay [1] is 7.5 pIC50 (M). In addition, the figures for the “FITC+/Alexa 647+ cell rate ratio” value in assay [2], in assay [4] and in assay [3] were less than 0.1 ratio, less than 0.1 ratio and no less than 0.5 ratio, respectively.

B9: 84-1111F (antibody, IgG2b, V domains shown)
VH: EVQVVESGGGLVQPGRSMKLSCAALGFTFRDYYMAWVRQTPTKGLEWVAAISTGGGNTYYRDSVKGRFTISRDNAKSTLYLKMDSLRSDDTATYYCARNPYGNYFDYWGQGVMVTVSS
VL: QFVLSQPNSVSTNLGSTVKLSCKRSTGNIGSNYVHWYQRHEGRSPTTMIYRDDKRPNGVPDRFSGSIDRSSNSALLTINNVQTEDEADYFCQSYSGGMYLFGGGTTLTVL
In the case of B9, the “pIC50, S1P transport inhibition” value in assay [1] was 8.1 pIC50 (M). Also, the “FITC+/Alexa 647+ cell rate ratio” value in assay [2] is less than 0.1 ratio; in assay [4] it was less than 0.1 ratio; in assay [3] it was no less than 0.5 ratio.

B10: 82-1109A (antibody, IgG2b, V domains shown)
VH: QVQLQQSGVELAKPGSSVKISCKASGNTFTSNYITWIKQTPGQGLEYIGYINTGSGKTYYNEKFKGKATLTADKSSSTAFMQLSSLTPDDSAVYFCASLTGVDYFDDWGQGVMVTVSS
VL: DDIVLTQSPALAPSLGQRATISCRASQSVRMSGYNLMHWYQQKPGQQPKLLIYDASKLASGIPARFSGSGSGTDFTLTIDPVQSDDIATYYCQQSKDDPYTFGAGTKLELRR
As to B10, the “FITC+/Alexa 647+ cell rate ratio” value in assay [2] was no less than 0.5 ratio; in assay [4], no less than 0.5 ratio; in assay [3], less than 0.1 ratio.

For the origin of these results see US20210147523A1 (TEIJIN PHARMA, published 2021).
